# Results published in US20210261685A1 (Alector, published 2021).
# Positions count from the first letter of the chain named.
# T1: Recombinant human MerTK human Fc Chimera protein (R&D systems, Cat #391-MR-100) (human, UniProt Q12866 26-499, limits assumed)
# T1 construct: Bought; also called recombinant human MerTK protein; MerTK-Fc
# T1 sequence: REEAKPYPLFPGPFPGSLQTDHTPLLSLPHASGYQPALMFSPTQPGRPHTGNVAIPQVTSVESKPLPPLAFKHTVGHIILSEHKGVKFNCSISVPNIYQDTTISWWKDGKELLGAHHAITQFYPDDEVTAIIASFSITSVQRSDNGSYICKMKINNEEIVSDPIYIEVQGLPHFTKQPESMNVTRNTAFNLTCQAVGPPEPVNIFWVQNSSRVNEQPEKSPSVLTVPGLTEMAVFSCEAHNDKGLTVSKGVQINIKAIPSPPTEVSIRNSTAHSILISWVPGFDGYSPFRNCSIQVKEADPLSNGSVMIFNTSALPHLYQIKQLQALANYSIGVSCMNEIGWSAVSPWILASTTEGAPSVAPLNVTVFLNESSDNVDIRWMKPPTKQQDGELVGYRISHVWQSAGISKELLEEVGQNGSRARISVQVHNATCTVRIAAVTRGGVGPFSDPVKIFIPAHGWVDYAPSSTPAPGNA
# T2: cyno MerTK extracellular domain (ECD), recombinant (cynomolgus monkey, UniProt Q12866 21-505 (human entry))
# T2 construct: also called cynomolgus MerTK; not shown: polyHis tag or TEVS/Thrombin/murine IgG2a Fc tag
# T2 chain: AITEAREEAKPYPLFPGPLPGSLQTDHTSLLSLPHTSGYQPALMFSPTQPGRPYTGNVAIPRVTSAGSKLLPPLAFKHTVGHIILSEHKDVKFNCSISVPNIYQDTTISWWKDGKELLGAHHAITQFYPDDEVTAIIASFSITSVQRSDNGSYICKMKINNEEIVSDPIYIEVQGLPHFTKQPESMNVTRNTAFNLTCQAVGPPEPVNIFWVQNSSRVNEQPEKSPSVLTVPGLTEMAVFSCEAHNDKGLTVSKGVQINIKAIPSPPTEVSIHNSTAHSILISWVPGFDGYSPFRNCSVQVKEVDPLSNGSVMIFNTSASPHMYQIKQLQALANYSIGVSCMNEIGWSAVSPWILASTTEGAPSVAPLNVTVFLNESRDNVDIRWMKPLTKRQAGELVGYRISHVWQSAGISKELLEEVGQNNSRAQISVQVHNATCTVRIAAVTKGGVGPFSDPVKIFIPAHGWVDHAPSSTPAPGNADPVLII
# B1: MTK-12 (antibody, human IgG1, V domains shown)
# VH: QVQLQQSGPQLVRPGASVKISCKASGYSFTSHWMHWVKQRPGQGLEWIGMIDPSDGESRLNQKFKDKATLTVDKSSSTAYMQLSSPTFEDSAVYYCARGIYYYGITYAMDYWGQGTSVTVSS
# VL: QIVLTQSPAIMSASPGEKVTMTCSASSSVSYMYWYQQKPRSSPRLLIYDTSNLASGVPVRFSGSGSGTSYSLTISRMEAEDAATYYCQQWSSYPLTFGAGTKLELK
# B2: MTK-10 (antibody, human IgG1, V domains shown)
# VH: QVTLKESGPGILQPSQTLSLTCSFSGFSLTTSGMGVGWIRQPSGKGLEWLAHIWSDDDKRSNPALKSRLTISQDSSTNQVFLKIASVDTADSATYYCSHLTPVREFAYWGPGTLVTVSE
# VL: DIQMTQTTSSLSASLGDRVTISCSASQGISNYLNWFQQKPDGTVKLLIYYTSRLHSGVPSRFSGSGSGTDFSLTISNLEPEDIATYYCQQYTKLPYTFGGGTKLEIK
# B3: MTK-28 (antibody, human IgG1, V domains shown)
# VH: QIQLVQSGPELKKPGETVKISCKASGYTFTTYGMSWVKQAPGKGLKWMGWINTYSGVPTYADDFKGRFAFSLETSASTAYLQINTLKNEDTTTYFCARFLRYYYFDYWGQGTTLTVSS
# VL: QIVLSQSPVILSASPGEKVTMTCRASSSVTYMHWYQQQPGSSPKPWIYATSNLASGVPARFSGSGSGTSYSLTISRVETEDAATYYCHQWSGNPTFGGGTKLEIN
# B4: MTK-30 (antibody, human IgG1, V domains shown)
# VH: QVQLQQPGTELVRPGASVKLSCKASGYTFTSYWMHWVKQRPGQGLEWIGNLNPNNGGTYYNEKFKSKATLTVDKSSSTAYMQLSSLTSEDSAVYYCARQILLYFDYWGQGTTLTVSS
# VL: DVLMTQTPLSLPVSLGDQASISCRSSQSIVHSNGDTYLEWYLQKPGQSPKLLIYKVSNRFSGVPDRFSGSGSGTDFTLKISRVEAEDLGVYYCFQGSHVPWTFGGGTKLEIK
# B5: MTK-13 (antibody, human IgG1, V domains shown)
# VH: DVQLQESGPGLVKPSQSLSLTCSVTGYSITSGYYWNWIRQFPGNKLEWMGNIDYDGSNKYNPSLKNRISITRDTSKNHFFLKLNSVTPEDTATYFCARDGGNYRSFAYWGQGTLVTVSA
# VL: QIVLTQSPPIMSASPGEKVTITCSASSSVSYMYWFQQKPGTSPKLWIYSTFNLASGVPARFSGSGSGTSYSLTISRMEAEDVATYYCQQRSSYPFTFGSGTKLEIK
# B6: MTK-26 (antibody, human IgG1, V domains shown)
# VH: AVQFQESGPGLVKLSQSLSLTCSVTGYSITSGYYWDWIRQFPGNKLEWMGYISYDGSNNYNPSLKNRISITRDTSKNQFFLKLNSVTTEDTATYYCAREGGYYRSMDYWGQGTSVTVSS
# VL: B5 VL with P9A, T22A, Y31F, Y33H, K44R, F51S, V82A
# B7: MTK-35 (antibody, human IgG1, V domains shown)
# VH: QVLLQQSGPELVKPGASVQLSCKASDYTFTSYDIHWVKQRPGQGLEWIGWIYPRDGYTKYNEIFKGKATLTVDTSSTTAYMELHSLTSEDSAVYFCARAYYTNWYYFDYWGQGTTLTVSS
# VL: EIVLTQSPTTMAASPGEKITITCRASSSISSHYLHWYQQKPGFSPKLLIYRTSNLASGVPARFSGSGSGTSYSLTIGTMEAEDVATYYCQQGSTIPLTFGAGTKLVLK
# B8: MTK-15 (antibody, human IgG1, V domains shown)
# VH: QIQLVQSGPELKKPGETVKISCKASGYTFTNYGVHWVKQAPGKGLKWMGWINTYTGEPTYADDFKGRFAFSLETSASTAYLQINNLKNEDMATYFCARGNRYAYMDYWGQGTSVTVSS
# VL: QIVLSQSPAILSASPGEKVTMTCRASSSVSYMHWYQQKSGSSPKPWIYATSNLASGVPARFSGSGSGTSYSLTISRVEAEDAATYYCQQWSSNPRTFGGGTKLEIK
# B9: MTK-06 (antibody, human IgG1, V domains shown)
# VH: QIQLVQSGPELKKPGETVKISCKASGYTFTNYGMNWVKQAPGKGLKWMGWINTNTGEPTYAEEFKGRFAFSLETSASTAYLQINNLKNEDTATYFCARYYNYWYFDVWGAGTTVTVSS
# VL: B8 VL with S39P, N93K, R95P
# B10: MTK-32 (antibody, human IgG1, V domains shown)
# VH: QIQLVQSGPELKKPGETVKISCKASGYTFTSYGMSWVHQAPGKGLKWLGWINTYSGVPTYADDFRGRFAFSLDTSVSTASLEINNLQNEDTATYFCAREDNWAWFAYWGQGTLVTVST
# VL: B8 VL with S26T, S30G, Q37R, S39P
# B11: MTK-11 (antibody, human IgG1, V domains shown)
# VH: QVQLKQSGPGLVQPSQSLSITCTVSGFSLTDYGVHWVRQSPGKGLEWLGVIWSSGTTDYNEAFISRLSISKDNSKSHVFFKMNSLQAIDTAIYYCARKGHDPYAMDYWGQGTSVTVSS
# VL: QIVLTQSPAIMSASLGERVTMTCTASSSISSSYFHWYQQKPGSSPKLWIYSTSNLPSGVPARFSGSGSGTSYSLTISSMEAEDAATYYCHQYYRSPLTFGAGTKLELK
# B12: MTK-16 (antibody, human IgG1, V domains shown)
# VH: LIQLVQSGPELKKPGETVKISCKASGYTFTNHGMNWVKQDPGKGLKWMGWINTYTGEPTYADDFKGRFVFSMETSASAAFLQINNLKNEDTATYFCARKGVTAARYFDYWGQGTTLTVSS
# VL: DIVMTQSPKFMSTSVGDRVSITCKASQNVRTAVAWYKKKPGQSPKALINLASNRHTGVPDRFTGSGSGTDFTLTISNVQSEDLADYFCLQHWNYPLTFGGGTKLEIK
# B13: MTK-27 (antibody, human IgG1, V domains shown)
# VH: EVQLQQSGTELVRPGASVKLSCTASGFNIKDDYMHWVQQRPEQGLEWIGWIDPENGNTEYASKFQGKATITADASSNTAYLQLSSLTSEDTAVYYCSTLFSNYFDYWGQGTTLTVSS
# VL: B12 VL with P8Q, A32S, K37Q, K38Q, N49Y, Q79R, L96Y
# B14: MTK-24 (antibody, human IgG1, V domains shown)
# VH: QVQLQQPGAELVKPGASVKLSCKASGYTFTSYWMHWVKQRPGQGLEWIGMIHPNINTNYNEKFKSKATLTVDISSSTAYMQLSSLTSEDSAVYYCAKRSPYSNYDWYFDVWGTGTTVTVSS
# VL: DIQMTQSPASLSVSVGETVTITCRASENIYSNLAWYQQKQGKSPQLLVYAATNLADGVPSRFSGSGSGTQYSLKINSLQSEDFGSYYCQHFWGTPLTFGAGTKLELK
# Target: T1, Recombinant human MerTK human Fc …
# Experiment: competition ELISA, His-ProS on captured MerTK-Fc
# In short: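 MerTK-Fc (2 μg/ml) captured on plate-bound anti-human IgG was exposed to anti-MerTK antibodies (66.6 nM-4 pM final) together with His-Gas6 at 3 μg/ml or His-ProS at 20 μg/ml for 1 h. Bound ligand was detected with HRP-anti-His and TMB. IC50 (nM) was derived from OD450 dose-response curves.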
row,IC50 [nM],Binder
1,3.36,B1
2,3.8,B2
3,2.78,B3
4,1.57,B4
5,3.76,B5
6,1.2,B6
7,0.924,B7
8,4.2,B8
9,2.17,B9
10,2.78,B10
11,24.2,B11
12,8.59,B12
13,2.54,B13
14,0.579,B14

# Target: T2, cyno MerTK extracellular domain (ECD), …
# Experiment: SPR, Carterra LSA, antibody immobilised
# Description: Binding kinetics of human anti-MerTK IgG1 LALAPS antibodies of the present disclosure to human, cyno, and murine MerTK were evaluated using a Carterra LSA instrument (Carterra, Salt Lake City, Utah). Briefly, anti-MerTK antibodies were prepared by diluting to 10 μg/ml in 10 mM Acetate, pH 4.25 (Carterra), at 300 μl/well. A HC200M sensor chip (Carterra) was activated using the single channel flow cell with a 7-minute injection of a 1:1:1 mixture of 100 mM MES pH 5.5, 100 mM sulfo-NHS, 400 mM EDC (all reconstituted in MES pH 5.5; 100 μl of each mixed in vial immediately before running assay). After switching to the multi-channel array flow cell, the antibodies were injected over the activated chip in a 96-spot array for 15 minutes. The remaining unconjugated active groups on the chip were then blocked by injecting 1M Ethanolamine pH 8.5 (Carterra) for 7 minutes using the single channel flow cell.
# After priming with running buffer (HBS-TE, Carterra) with 0.5 mg/ml BSA (Sigma), the immobilized anti-MerTK antibodies were tested for their ability to bind to several forms of recombinant MerTK extracellular domain, including human, cynomolgus, and mouse orthologs as described above. Estimates of affinity were generated by injecting each analyte over the entire antibody array using the single channel flow cell. MerTK analytes were diluted to 33.3, 100, and 300 nM in running buffer, and injected in serial from lowest to highest concentration without regeneration. Two buffer blanks were run between each series (one species per series). Data were processed and analyzed using NextGenKIT high-throughput kinetics analysis software (Carterra).
# The equilibrium dissociation constants (KD) were then calculated from the fitted association and dissociation rate constants (k-on and k-off) for anti-MerTK antibodies of the present disclosure. Binding kinetic analysis was also performed on anti-MerTK antibodies H1 (BioLegend, Clone ID: 590H11G1E3), H2 (R&D systems, Clone ID: 125518), M6 (WO2016/106221), and CDX AB2000-A7 hIgG1 (WO2019/084307).
binding result,Kd [nM],Binder
no binding (tested: 300 nM),–,B1
–,1.9,B2
–,4.5,B3
–,24,B4
–,39,B5
–,30,B6
–,13,B7
–,3,B8
–,17,B9
–,107,B10
–,2.9,B11
–,1.6,B12
–,71,B13
–,44,B14
